Source: patent publication US7678885 (GENETICS INSTITUTE, dated 2010)

B2: BMP-6 subunit beginning with amino acid #375 (CHO-produced) (ligand)
chain: SASSRRRQQSRNRSTQSQDVARVSSASDYNSSELKTACRKHELYVSFQDLGWQDWIIAPKGYAANYCDGECSFPLNAHMNATNHAIVQTLVHLMNPEYVPKPCCAPTKLNAISVLYFDDNSNVILKKYRNMVVRACGCH
notes: Single subunit

Key:
[1] = target: B2; assay: protein sequencing of purified CHO BMP-2/6 heterodimer subunits
Experimental: (§1) The BMP-2/6 heterodimer subunits are analyzed on a protein sequenator.

[2] = target: the molecule itself; assay: purification of BMP-2/6 from CHO 12C07 medium, gel analysis
Experimental: After the completion of sample loading, the column was washed with 10 bed volumes of the equilibration buffer. Bound BMP-2/7 or BMP-2/6 heterodimers were eluted with 5 bed volumes of 100 mM potassium phosphate, 6M urea, pH 7.4. This eluate was loaded directly onto a Vydac C_4 reverse-phase HPLC column equilibrated in water –0.1% TFA. BMP-2/7 or BMP-2/6 heterodimers were eluted with a gradient of 30-50% acetonitrile in water—0.1% trifluoroacetic acid.
Fractions containing BMPs are identified by SDS-PAGE in the presence or absence of reductant. The identity of the BMPs with respect to the heterodimers vs. homodimers is determined by 2D-PAGE (+/−reductant). Fractions with heterodimers gave bands which reduce to two spots. Bands from homodimer fractions reduce to a single spot for each BMP species.

[3] = target: T1, BMP-2 subunit beginning with amino acid #249 (CHO-produced) (human, UniProt P12643 249-396); assay: protein sequencing of purified CHO BMP-2/6 heterodimer subunits
T1 construct: Single subunit; also called BMP-2 subunit #249 Ser-Lev-His
T1 sequence: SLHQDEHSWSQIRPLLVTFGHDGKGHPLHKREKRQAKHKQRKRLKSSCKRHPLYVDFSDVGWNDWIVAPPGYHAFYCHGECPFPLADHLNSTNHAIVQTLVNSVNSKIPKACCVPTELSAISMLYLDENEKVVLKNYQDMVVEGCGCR
Experimental: as §1

[4] = target: the molecule itself; assay: refolding of E. coli monomer, SDS-PAGE with and without reduction

B1: BMP-2 subunit beginning with amino acid #283 (CHO-produced) (ligand)
chain: QAKHKQRKRLKSSCKRHPLYVDFSDVGWNDWIVAPPGYHAFYCHGECPFPLADHLNSTNHAIVQTLVNSVNSKIPKACCVPTELSAISMLYLDENEKVVLKNYQDMVVEGCGCR
notes: also called mature BMP-2 subunit
B1: binds [1].

B2: binds [2]; binds [3].

B3: E. coli BMP-2 monomer (mature portion of BMP-2 from plasmid pALBP2-781) (ligand)
chain: MQAKHKQRKRLKSSCKRHPLYVDFSDVGWNDWIVAPPGYHAFYCHGECPFPLADHLNSTNHAIVQTLVNSVNSKIPKACCVPTELSAISMLYLDENEKVVLKNYQDMVVEGCGCR
B3: binds [4].
